In publication PMC7614769, “Structural basis for Fc receptor recognition of immunoglobulin M” (Nature structural & molecular biology, 2023) one finds Kd data, which are given here for 1 molecule.

This test deals with pentameric IgM-Fc core containing Cμ4, Cμ3 and the J chain (human, UniProt P01871 106-433; P01591 23-159, N-linked glycosylation at Asn563). The test can be described thus: BLI; FcμR (20 μg/ml) captured on AMC (anti-mouse IgG-Fc capture) biosensors by the anti-FcμR antibody RR-16; full-length or proteolysed IgM 0.08-10 nM in solution; PBS, 0.005% Tween 20, 25 °C; apparent Kd from response against IgM concentration, 1:1 binding model. The conditions noted are these: both partners purified. A general note: Biolayer interferometry detects binding as a change in optical thickness at a sensor tip.

B1: human FcμR ectodomain (receptor, UniProt O60667 17-251, looked up)
chain: LRILPEVKVEGELGGSVTIKCPLPEMHVRIYLCREMAGSGTCGTVVSTTNFIKAEYKGRVTLKQYPRKNLFLVEVTQLTESDSGVYACGAGMNTDRGKTQKVTLNVHSEYEPSWEEQPMPETPKWFHLPYLFQMPAYASSSKFVTRVTTPAQRGKVPPVHHSSPTTQITHRPRVSRASSVAGDKPRTFLPSTTASKISALEGLLKPQTPSYNHHTRLHRQRALDYGSQSGREGQG
notes: FcμR, human, ectodomain; Full-length human FcμR has 390 aa; 251 aa are extracellular: 17-aa signal peptide, 107-aa Ig-like domain, 127-aa stalk; Only the Ig-like domain is resolved in the cryo-EM maps; also called TOSO; FAIM3; source: bought: R&D, Catalog 9494-MU-050, lyophilized, suspended in PBS
B1: the Kd came out at 700 ± 100 pM.
